Earlier results on four molecules are cited in US20210265014A1, “METHOD AND ELECTRONIC SYSTEM FOR PREDICTING AT LEAST ONE FITNESS VALUE OF A PROTEIN VIA AN EXTENDED NUMERICAL SEQUENCE, RELATED COMPUTER PROGRAM PRODUCT” (PEACCEL, priority 2018, published 2021).

For series [1], the target named is T1, Glucagon like peptide-2 (GLP-2) receptor (Rattus norvegicus, UniProt Q9Z0W0).
T1 sequence (Q9Z0W0 1-550): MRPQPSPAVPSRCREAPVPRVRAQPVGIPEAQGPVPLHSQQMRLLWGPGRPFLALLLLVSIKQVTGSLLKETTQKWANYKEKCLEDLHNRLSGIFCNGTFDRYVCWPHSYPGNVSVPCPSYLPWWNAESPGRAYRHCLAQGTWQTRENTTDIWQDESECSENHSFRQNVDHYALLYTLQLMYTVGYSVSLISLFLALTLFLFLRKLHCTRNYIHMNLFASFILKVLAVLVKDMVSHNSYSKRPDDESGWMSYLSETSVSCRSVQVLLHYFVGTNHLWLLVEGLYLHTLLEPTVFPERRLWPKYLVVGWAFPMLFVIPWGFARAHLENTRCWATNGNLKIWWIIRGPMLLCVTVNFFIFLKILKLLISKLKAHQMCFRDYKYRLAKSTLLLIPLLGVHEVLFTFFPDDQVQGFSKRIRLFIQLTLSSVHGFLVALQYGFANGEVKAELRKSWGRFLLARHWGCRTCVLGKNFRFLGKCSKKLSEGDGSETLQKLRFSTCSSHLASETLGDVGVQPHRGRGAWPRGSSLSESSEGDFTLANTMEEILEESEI
Particulars: receptor activation, fold increase over basal cAMP production.

For series [2] the following is noted: Aspergillus niger epoxide hydrolase; for ΔΔG values: enantioselectivity as ΔΔG‡=−RT ln(E); for E-value: enantioselectivity, glycidyl phenyl ether.

Residue numbers refer to the chain shown, from its start.

Regarding “T32A: alanine variant of Glucagon like peptide-2 (GLP-2) (HADGSFSDEMNTILDNLAARDFINWLIQTKIAD; Glucagon-like peptide 2; UniProt P01275 146-178, looked up, variant T32A) [Chimera T32A]”, the “fold-increase in cAMP” value in series [1] is on record as 0.84 fold.
“W25A: alanine variant of Glucagon like peptide-2 (GLP-2) (HADGSFSDEMNTILDNLAARDFINALIQTKITD; Glucagon-like peptide 2; UniProt P01275 146-178, looked up, variant W25A) [Chimera W25A]”: the “fold-increase in cAMP” value in series [1] is reported as 1.37 fold.

B1: L215 F_A217N_R219S_L249Y_T317W_T318V_C350V: epoxide hydrolase mutant from Aspergillus niger (protein)
chain: NHKAFAKFPSSASISPNPFTVSIPDEQLDDLKTLVRLSKIAPPTYESLQADGRFGITSEWLTTMREKWLSEFDWRPFEARLNSFPQFTTEIEGLTIHFAALFSEREDAVPIALLHGWPGSFVEFYPILQLFREEYTPETLPFHLVVPSLPGYTFSSGPPLDKDFGLMDNARVVDQLMKDLGFGSGYIIQGGDIGSFVGRLLGVGFDACKAVHLNLCNMSAPPEGPSIESLSAAEKEGIARMEKFMTDGYAYAMEHSTRPSTIGHVLSSSPIALLAWIGEKYLQWVDKPLPSETILEMVSLYWLTESFPRAIHTYREWVPTASAPNGATMLQKELYIHKPFGFSFFPKDLVPVPRSWIATTGNLVFFRDHAEGGHFAALERPRELKTDLTAFVEQVWQK
For B1, in series [2], the “ΔΔG values” was -2.73 kcal/mol and the E-value was 93.2.

B2: WT: WT epoxide hydrolase sequence from Aspergillus niger (protein)
chain: B1 chain with N217A, S219R, Y249L, W317T, V318T, V350C
modifications: Aspergillus niger
B2: in series [2], the “ΔΔG values” is -0.85 kcal/mol and the E-value is 4.
